Measurements published in publication PMC10085699.

Legend:
[1] = target: T1, SETX-HD-V1884T (Homo sapiens, UniProt Q7Z333 1674-2677, V1884T); assay: EMSA
T1 sequence: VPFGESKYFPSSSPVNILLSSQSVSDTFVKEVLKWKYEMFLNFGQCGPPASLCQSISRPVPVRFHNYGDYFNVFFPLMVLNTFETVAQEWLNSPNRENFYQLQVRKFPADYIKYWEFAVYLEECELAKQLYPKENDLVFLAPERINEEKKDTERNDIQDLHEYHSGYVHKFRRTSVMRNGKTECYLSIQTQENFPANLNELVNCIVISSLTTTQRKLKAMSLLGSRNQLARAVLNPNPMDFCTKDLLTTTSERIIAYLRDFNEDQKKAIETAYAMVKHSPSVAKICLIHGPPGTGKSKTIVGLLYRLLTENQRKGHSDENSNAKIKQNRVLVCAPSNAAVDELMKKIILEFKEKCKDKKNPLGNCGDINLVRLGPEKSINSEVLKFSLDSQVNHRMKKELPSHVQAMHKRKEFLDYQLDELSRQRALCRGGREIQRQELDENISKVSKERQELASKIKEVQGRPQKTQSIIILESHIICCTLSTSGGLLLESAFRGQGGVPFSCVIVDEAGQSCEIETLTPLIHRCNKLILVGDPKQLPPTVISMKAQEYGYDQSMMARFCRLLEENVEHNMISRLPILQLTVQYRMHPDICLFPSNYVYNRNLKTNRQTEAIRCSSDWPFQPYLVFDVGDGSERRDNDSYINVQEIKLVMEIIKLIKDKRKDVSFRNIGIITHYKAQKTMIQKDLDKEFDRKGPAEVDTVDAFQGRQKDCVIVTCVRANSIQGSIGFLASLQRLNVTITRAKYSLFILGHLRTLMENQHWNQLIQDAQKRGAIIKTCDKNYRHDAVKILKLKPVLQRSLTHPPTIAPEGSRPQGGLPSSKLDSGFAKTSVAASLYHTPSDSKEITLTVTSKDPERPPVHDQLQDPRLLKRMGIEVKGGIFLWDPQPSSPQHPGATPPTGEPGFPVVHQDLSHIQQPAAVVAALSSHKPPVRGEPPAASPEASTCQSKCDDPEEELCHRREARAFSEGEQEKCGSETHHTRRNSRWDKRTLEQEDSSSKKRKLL

[2] = target: T2, SETX-HD-DE/AA (Homo sapiens, UniProt Q7Z333 1674-2677, D2181A;E2182A); assay: EMSA
T2 sequence: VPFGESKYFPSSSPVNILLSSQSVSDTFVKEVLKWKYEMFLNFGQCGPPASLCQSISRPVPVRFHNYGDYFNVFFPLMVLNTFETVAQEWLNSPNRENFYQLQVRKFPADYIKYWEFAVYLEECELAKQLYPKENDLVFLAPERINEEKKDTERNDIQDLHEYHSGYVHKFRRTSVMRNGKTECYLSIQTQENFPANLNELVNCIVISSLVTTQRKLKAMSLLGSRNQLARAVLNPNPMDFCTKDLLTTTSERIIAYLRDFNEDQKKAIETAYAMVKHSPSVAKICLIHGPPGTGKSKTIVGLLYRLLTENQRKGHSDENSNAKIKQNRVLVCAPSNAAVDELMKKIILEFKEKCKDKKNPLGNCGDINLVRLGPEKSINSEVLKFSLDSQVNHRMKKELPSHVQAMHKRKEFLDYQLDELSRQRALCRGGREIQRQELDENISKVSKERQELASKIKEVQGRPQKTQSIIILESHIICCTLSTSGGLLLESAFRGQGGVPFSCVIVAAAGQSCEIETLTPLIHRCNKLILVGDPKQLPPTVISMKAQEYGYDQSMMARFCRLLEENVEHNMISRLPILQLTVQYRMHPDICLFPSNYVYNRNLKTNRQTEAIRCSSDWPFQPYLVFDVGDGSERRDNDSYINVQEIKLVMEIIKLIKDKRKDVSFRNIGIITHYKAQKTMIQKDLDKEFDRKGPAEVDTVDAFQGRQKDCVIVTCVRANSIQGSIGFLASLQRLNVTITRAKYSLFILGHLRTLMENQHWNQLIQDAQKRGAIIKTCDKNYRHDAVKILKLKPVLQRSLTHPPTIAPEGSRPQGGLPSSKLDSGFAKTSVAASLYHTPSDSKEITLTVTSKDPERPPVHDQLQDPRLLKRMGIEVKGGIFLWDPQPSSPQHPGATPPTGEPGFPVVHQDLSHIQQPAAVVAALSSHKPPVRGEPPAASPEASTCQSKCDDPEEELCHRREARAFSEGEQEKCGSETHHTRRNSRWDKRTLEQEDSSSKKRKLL

B1: ssRNA pRMS678 (61 nt) (ssRNA)
RNA: UUGUCUUCUCAUAAAUUUAAUCCCCGUACGCUUAUACUCCUUUAACUACCCAGUCUUCCCG
B1: binds [1]; binds [2].
